Common to all, as to assay: Kinase Profiling Assay
What all share (type): biochemical
Holding throughout (conditions): 100 μM

The target in assay [1] is T1, PAK2 (h) (Homo sapiens, UniProt Q13177).
T1 construct: purchased Millipore
An outline of the steps:
(§1)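 Scintillation counting quantifies radiolabeled, positively charged substrate retained on a negatively charged filter after kinase reaction with labeled ATP; inhibitor peptide present.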

The target in assay [2] is T2, ULK2 (h) (Homo sapiens, UniProt Q8IYT8).
T2 sequence (Q8IYT8 1-1036): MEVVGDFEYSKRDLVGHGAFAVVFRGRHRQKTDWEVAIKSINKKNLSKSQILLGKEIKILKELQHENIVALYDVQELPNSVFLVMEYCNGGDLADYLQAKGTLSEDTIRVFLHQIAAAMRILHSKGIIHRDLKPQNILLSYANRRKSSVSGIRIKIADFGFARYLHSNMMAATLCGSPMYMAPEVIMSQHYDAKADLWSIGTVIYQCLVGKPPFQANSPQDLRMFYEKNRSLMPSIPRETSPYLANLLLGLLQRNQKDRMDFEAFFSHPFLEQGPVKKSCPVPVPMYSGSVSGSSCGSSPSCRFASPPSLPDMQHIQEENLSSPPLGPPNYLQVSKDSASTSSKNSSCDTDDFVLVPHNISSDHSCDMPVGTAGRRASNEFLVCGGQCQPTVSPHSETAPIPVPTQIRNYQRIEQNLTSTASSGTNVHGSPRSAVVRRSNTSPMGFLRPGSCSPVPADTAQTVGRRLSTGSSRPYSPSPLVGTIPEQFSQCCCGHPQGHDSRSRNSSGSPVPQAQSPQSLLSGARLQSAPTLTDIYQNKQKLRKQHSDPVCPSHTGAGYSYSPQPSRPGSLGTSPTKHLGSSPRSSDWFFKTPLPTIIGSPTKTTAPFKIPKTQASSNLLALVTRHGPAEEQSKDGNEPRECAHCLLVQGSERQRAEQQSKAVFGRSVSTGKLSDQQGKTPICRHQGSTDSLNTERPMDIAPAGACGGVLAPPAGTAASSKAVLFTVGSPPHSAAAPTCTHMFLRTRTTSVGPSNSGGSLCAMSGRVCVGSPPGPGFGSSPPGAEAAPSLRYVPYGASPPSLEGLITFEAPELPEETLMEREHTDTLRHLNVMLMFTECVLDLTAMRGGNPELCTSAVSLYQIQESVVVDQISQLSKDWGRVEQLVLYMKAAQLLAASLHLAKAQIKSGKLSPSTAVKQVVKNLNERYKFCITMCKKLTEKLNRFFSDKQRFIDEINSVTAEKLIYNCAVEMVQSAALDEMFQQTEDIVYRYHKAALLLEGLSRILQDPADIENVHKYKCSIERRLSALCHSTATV
In short, it runs like this:
as §1

In assay [3] the target is T3, PAK5 (h) (Homo sapiens, UniProt Q9P286).
T3 construct: purchased Millipore
An outline of the steps: as §1

In assay [4] the target is T4, CDK5/p25 (h) (Homo sapiens, UniProt Q00535).
T4 construct: purchased Millipore
In short, it runs like this:
as §1

For assay [5], the target named is Abl (h) (Homo sapiens, UniProt P00519). In short, it runs like this: as §1
Assay [6] deals with T5, PKCμ (h) (Homo sapiens, UniProt Q15139).
T5 sequence (Q15139 1-912): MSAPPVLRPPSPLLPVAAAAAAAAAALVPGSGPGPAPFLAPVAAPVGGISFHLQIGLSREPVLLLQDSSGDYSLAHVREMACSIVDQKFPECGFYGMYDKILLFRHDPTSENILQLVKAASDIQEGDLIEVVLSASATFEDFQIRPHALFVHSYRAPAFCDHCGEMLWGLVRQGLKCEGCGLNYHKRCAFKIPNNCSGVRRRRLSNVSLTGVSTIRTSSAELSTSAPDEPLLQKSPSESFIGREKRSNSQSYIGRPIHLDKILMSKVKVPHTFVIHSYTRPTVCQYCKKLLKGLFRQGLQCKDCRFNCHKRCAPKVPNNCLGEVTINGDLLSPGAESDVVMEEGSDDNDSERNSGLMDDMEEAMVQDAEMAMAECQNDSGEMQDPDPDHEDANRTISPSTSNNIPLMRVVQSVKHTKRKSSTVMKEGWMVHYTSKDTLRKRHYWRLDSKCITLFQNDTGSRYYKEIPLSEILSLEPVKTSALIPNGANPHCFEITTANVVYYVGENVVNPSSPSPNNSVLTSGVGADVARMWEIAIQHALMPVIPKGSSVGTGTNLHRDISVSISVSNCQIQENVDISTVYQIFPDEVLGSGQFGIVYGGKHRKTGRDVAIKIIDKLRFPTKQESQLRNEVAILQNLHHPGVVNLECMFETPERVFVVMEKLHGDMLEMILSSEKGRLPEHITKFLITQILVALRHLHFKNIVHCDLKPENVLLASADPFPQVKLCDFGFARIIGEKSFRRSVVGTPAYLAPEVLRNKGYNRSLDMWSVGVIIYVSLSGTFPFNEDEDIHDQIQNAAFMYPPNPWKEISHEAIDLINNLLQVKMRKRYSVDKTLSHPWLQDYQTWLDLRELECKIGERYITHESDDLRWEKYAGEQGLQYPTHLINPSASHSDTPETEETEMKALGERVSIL
An outline of the steps:
as §1

Assay [7] has as its target T6, PKBγ (h) (Homo sapiens, UniProt Q9Y243).
T6 construct: purchased Millipore
An outline of the steps: as §1

The target in assay [8] is TLK2 (h) (Homo sapiens, UniProt Q86UE8). In short, it runs like this: as §1
TLK2 (h), sequence (Q86UE8 whole entry): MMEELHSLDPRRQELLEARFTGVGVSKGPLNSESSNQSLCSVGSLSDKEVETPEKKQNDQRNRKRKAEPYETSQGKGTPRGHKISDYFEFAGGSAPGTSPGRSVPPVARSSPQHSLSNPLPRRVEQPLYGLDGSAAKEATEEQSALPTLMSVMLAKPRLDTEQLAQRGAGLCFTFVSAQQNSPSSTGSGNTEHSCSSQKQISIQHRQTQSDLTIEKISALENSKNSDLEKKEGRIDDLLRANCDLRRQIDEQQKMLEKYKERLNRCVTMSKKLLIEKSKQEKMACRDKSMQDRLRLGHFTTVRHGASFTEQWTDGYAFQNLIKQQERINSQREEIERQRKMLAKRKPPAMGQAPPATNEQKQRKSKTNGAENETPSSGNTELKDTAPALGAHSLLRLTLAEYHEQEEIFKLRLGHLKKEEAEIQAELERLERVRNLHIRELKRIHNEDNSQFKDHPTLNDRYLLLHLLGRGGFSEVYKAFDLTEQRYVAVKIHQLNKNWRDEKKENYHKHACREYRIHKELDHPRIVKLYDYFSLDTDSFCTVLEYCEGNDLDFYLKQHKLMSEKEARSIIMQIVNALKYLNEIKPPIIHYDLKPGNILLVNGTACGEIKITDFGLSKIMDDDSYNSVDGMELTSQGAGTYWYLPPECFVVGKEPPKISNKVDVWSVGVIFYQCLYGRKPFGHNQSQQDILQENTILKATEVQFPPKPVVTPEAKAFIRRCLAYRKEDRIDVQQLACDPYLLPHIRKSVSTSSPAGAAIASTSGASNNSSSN

Abl (h), sequence (P00519 whole entry): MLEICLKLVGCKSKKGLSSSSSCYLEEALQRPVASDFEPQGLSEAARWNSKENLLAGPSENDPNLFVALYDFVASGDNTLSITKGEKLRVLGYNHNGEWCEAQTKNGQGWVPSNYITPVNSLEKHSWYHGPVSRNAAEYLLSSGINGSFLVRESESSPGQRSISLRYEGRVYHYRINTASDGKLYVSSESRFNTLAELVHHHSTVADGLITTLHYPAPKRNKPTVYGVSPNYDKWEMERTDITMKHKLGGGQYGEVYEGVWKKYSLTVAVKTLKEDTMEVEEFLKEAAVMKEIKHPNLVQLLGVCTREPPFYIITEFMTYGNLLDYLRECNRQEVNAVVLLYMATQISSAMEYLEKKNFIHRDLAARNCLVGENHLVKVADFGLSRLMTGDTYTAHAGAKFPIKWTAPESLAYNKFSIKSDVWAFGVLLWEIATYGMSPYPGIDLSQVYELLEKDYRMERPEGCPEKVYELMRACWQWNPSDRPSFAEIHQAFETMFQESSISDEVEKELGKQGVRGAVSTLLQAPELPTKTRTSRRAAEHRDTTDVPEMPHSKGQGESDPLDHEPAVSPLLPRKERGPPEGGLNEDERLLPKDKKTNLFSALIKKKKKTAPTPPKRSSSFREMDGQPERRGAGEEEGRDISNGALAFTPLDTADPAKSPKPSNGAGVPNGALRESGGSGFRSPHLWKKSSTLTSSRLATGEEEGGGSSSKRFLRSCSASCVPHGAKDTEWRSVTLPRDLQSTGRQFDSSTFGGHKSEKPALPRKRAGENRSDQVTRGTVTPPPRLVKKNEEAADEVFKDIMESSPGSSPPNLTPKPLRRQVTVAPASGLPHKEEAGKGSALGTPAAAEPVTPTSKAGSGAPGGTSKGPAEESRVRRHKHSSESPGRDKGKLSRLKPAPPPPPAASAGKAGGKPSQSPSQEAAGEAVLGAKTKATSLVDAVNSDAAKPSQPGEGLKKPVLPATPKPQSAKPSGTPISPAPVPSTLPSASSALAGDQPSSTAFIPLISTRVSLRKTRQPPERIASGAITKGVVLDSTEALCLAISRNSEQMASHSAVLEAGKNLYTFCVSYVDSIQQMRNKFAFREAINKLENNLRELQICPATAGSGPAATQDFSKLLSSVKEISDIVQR
T4 sequence (Q00535 whole entry): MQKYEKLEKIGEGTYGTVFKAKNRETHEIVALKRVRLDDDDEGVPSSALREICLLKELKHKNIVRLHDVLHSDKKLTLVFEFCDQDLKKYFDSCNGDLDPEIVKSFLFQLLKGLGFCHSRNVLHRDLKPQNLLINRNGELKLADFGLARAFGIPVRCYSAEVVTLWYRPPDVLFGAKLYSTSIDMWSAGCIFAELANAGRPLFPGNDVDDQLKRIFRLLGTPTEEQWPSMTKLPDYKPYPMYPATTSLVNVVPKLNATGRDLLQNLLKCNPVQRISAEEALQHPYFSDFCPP
T4 sequence (Q15078 99-307 partner limits assumed): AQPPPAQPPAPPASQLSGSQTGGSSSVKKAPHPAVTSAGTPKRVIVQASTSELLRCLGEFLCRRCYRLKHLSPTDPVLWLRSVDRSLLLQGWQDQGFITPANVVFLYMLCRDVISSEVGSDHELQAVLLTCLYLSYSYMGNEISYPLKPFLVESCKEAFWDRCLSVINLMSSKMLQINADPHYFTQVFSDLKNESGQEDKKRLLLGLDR
T3 sequence (Q9P286 whole entry): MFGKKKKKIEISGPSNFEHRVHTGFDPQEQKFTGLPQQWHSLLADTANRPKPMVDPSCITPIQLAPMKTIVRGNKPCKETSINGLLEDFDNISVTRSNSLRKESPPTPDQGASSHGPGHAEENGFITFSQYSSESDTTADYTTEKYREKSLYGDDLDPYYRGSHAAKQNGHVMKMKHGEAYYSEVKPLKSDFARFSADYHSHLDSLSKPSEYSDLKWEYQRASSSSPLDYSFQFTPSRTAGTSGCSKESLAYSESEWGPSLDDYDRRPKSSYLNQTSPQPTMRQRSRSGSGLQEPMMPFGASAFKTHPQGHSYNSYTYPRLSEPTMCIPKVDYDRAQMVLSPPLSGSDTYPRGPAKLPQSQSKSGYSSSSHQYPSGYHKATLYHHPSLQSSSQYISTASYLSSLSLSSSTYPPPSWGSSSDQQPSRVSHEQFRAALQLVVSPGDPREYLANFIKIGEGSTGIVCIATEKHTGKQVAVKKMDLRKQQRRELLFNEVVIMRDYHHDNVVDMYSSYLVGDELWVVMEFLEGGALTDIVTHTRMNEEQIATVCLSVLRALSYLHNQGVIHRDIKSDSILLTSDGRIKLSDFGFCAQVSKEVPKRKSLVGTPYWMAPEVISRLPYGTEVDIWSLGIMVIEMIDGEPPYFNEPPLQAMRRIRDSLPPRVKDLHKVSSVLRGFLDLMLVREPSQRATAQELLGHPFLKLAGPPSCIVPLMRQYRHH
T1 sequence (Q13177 whole entry): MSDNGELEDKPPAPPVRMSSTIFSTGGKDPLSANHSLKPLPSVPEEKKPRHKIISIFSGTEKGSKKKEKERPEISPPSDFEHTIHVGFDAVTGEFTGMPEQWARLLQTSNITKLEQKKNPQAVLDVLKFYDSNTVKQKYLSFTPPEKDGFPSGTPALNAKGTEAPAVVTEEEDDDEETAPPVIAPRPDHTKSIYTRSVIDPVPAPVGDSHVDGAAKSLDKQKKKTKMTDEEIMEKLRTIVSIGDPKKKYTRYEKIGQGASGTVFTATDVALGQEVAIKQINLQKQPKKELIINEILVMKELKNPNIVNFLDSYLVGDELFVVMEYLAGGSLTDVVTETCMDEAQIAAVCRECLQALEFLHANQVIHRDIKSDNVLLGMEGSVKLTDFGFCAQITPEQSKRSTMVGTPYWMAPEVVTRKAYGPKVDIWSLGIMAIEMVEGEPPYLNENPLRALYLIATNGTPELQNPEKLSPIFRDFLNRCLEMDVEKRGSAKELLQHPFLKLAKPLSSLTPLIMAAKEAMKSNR
T6 sequence (Q9Y243 whole entry): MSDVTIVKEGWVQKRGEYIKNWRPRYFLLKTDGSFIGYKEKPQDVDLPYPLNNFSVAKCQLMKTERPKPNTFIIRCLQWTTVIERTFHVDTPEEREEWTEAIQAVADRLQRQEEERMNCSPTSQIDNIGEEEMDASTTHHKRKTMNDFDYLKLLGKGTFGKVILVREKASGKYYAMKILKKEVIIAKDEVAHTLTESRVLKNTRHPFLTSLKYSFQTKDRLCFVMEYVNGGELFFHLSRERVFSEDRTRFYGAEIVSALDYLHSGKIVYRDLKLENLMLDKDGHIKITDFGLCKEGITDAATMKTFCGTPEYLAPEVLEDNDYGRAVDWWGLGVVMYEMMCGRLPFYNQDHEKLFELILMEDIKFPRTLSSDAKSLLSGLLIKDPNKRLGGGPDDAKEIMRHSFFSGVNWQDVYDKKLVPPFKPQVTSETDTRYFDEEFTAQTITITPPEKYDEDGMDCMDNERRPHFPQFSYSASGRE

Consider FAKLAARLYRKALARQLGVAA [MMI-0300], for which the “% activity” value turned out to be 65% in assay [1]; 122% in assay [2]; 110% in assay [3]; 89% in assay [4]; 69% in assay [5]; 22% in assay [6]. Besides, the “% activity” value in assay [7] came out at 20%.

For the sequence “HRRIKAWLKKIKALARQLGVAA (Mammalian) [MMI-0500]”, the “% activity” value was 44% in assay [1]; 124% in assay [2]; 133% in assay [8]; 125% in assay [3]; 66% in assay [4]; 16% in assay [5]. Also, the “% activity” value in assay [6] is 10%; in assay [7] it was 20%.

In the case of “YARAAARQARAKALNRQLGVA (Mammalian) [MMI-0200]”, the “% activity” value was determined as 69% in assay [1]; 132% in assay [2]; 129% in assay [8]; 100% in assay [3]; 97% in assay [4]; 73% in assay [6].

Turning to KAFAKLAARLYRKALARQLGVAA [MMI-0400], the “% activity” value is 59% in assay [1]; 131% in assay [2]; 151% in assay [8]; 92% in assay [4]; 84% in assay [5]; 14% in assay [6]. The “% activity” value in assay [7] is reported as 41%.

The values are drawn from patent publication US10500249B2, “Compositions and methods for preventing or treating diseases, conditions, or processes characterized by aberrant fibroblast proliferation and extracellular matrix deposition” (MOERAE MATRIX, INC., priority 2014, dated 2019).
